Measured values: patent US20140271457A1 (AbbVie / Abbott, published 2014)

These binders were tested against Recombinant Human TNF-α/TNFSF1A (human, UniProt P01375 77-233) (assay: cell-based or functional assay).
Recombinant Human TNF-α/TNFSF1A, sequence (P01375 77-233 limits assumed): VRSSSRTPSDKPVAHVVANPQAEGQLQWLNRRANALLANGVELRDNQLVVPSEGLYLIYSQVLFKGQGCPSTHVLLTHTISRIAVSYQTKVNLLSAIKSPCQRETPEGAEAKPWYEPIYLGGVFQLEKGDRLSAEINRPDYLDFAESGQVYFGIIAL

| C-Terminal VD huTNFα Neutralization Assay IC50 [nM] | N-Terminal VD huTNFα Neutralization Assay IC50 [nM] | Binder |
| --- | --- | --- |
| 0.085 |  | DVD2698 (bispecific antibody, IgG1) VH: EVQLVQSGAEVKKPGASVKVSCKASGYTFTKYWLGWVRQAPGQGLEWMGDIYPGYDYTHYNEKFKDRVTLTTDTSTSTAYMELRSLRSDDTAVYYCARSDGSSTYWGQGTLVTVSSGGGGSGGGGSEVQLVESGGGLVQPGGSLRLSCAASGFTFSNYGVTWVRQAPGKGLEWVSMIWADGSTHYASSVKGRFTISRDNSKNTLYLQMNSLRAEDTAVYYCAREWQHGPVAYWGQGTLVTVSS VL: DVLMTQTPLSLPVTPGEPASISCTSSQNIVHSNGNTYLEWYLQKPGQSPQLLIYKVSNRFSGVPDRFSGSGSGTDFTLKISRVEAEDVGVYYCFQVSHVPYTFGGGTKVEIKRGGSGGGGSGDIQMTQSPSSLSASVGDRVTITCRASQLVSSAVAWYQQKPGKAPKLLIYWASARHTGVPSRFSGSGSGTDFTLTISSLQPEDFATYYCQQHYKTPFTFGQGTKLEIKR |
| 0.018 |  | DVD3122 (bispecific antibody, IgG1) VH: EVQLVQSGAEVKKPGASVKVSCKASGYTFTTYGVSWVRQAPGQGLEWMGEIYPGNYNTYYNEKFRGRVTMTTDTSTSTAYMELRSLRSDDTAVYYCARWRTSYFSDYGYFDYWGQGTTVTVSSASTKGPSVFPLAPEVQLVQSGAEVKKPGASVKVSCKASGYTFNNYGIIWVRQAPGQGLEWMGWINTYTGKPTYAQKFQGRVTMTTDTSTSTAYMELSSLRSEDTAVYYCARKLFNTVAVTDNAMDYWGQGTTVTVSS VL: DVVMTQSPLSLPVTLGQPASISCRSSQSLVHSHGNTYLHWYQQRPGQSPRLLIYTVSNRFSGVPDRFSGSGSGTDFTLKISRVEAEDVGVYYCSQSTHVPYTFGGGTKVEIKRTVAAPDIQMTQSPSSLSASVGDRVTITCRASQDIENYLNWYQQKPGKAPKLLIYYTSRLQSGVPSRFSGSGSGTDFTLTISSLQPEDFATYFCQQGNTQPPTFGQGTKLEIKR |
|  | 0.001 | DVD2693 (bispecific antibody, IgG1) VH: EVQLVESGGGLVQPGGSLRLSCAASGFTFSNYGVTWVRQAPGKGLEWVSMIWADGSTHYASSVKGRFTISRDNSKNTLYLQMNSLRAEDTAVYYCAREWQHGPVAYWGQGTLVTVSSGGGGSGGGGSEVQLVQSGAEVKKPGASVKVSCKASGYTFTKYWLGWVRQAPGQGLEWMGDIYPGYDYTHYNEKFKDRVTLTTDTSTSTAYMELRSLRSDDTAVYYCARSDGSSTYWGQGTLVTVSS VL: DIQMTQSPSSLSASVGDRVTITCRASQLVSSAVAWYQQKPGKAPKLLIYWASARHTGVPSRFSGSGSGTDFTLTISSLQPEDFATYYCQQHYKTPFTFGQGTKLEIKRGGSGGGGSGDVLMTQTPLSLPVTPGEPASISCTSSQNIVHSNGNTYLEWYLQKPGQSPQLLIYKVSNRFSGVPDRFSGSGSGTDFTLKISRVEAEDVGVYYCFQVSHVPYTFGGGTKVEIKR |
|  | 0.006 | DVD2743 (bispecific antibody, IgG1) VH: EVQLVESGGGLVQPGGSLRLSCAASGFTFSNYGVEWVRQAPGKGLEWVSGIWADGSTHYADTVKSRFTISRDNSKNTLYLQMNSLRAEDTAVYYCAREWQHGPVAYWGQGTLVTVSSGGGGSGGGGSEVQLVQSGAEVKKPGASVKVSCKASGYTFTKYWLGWVRQAPGQGLEWMGDIYPGYDYTHYNEKFKDRVTLTTDTSTSTAYMELRSLRSDDTAVYYCARSDGSSTYWGQGTLVTVSS VL: DIQMTQSPSSLSASVGDRVTITCKASQLVSSAVAWYQQKPGKAPKLLIYWASTLHTGVPSRFSGSGSGTDFTLTISSLQPEDFATYYCQQHYRTPFTFGQGTKLEIKRGGSGGGGSGDVLMTQTPLSLPVTPGEPASISCTSSQNIVHSNGNTYLEWYLQKPGQSPQLLIYKVSNRFSGVPDRFSGSGSGTDFTLKISRVEAEDVGVYYCFQVSHVPYTFGGGTKVEIKR |
| 0.064 |  | DVD2699 (bispecific antibody, IgG1) VH: EVQLVQSGAEVKKPGASVKVSCKASGYTFTKYWLGWVRQAPGQGLEWMGDIYPGYDYTHYNEKFKDRVTLTTDTSTSTAYMELRSLRSDDTAVYYCARSDGSSTYWGQGTLVTVSSASTKGPEVQLVESGGGLVQPGGSLRLSCAASGFTFSNYGVTWVRQAPGKGLEWVSMIWADGSTHYASSVKGRFTISRDNSKNTLYLQMNSLRAEDTAVYYCAREWQHGPVAYWGQGTLVTVSS VL: DVLMTQTPLSLPVTPGEPASISCTSSQNIVHSNGNTYLEWYLQKPGQSPQLLIYKVSNRFSGVPDRFSGSGSGTDFTLKISRVEAEDVGVYYCFQVSHVPYTFGGGTKVEIKRTVAAPDIQMTQSPSSLSASVGDRVTITCRASQLVSSAVAWYQQKPGKAPKLLIYWASARHTGVPSRFSGSGSGTDFTLTISSLQPEDFATYYCQQHYKTPFTFGQGTKLEIKR |
| 0.106 |  | DVD2702 (bispecific antibody, IgG1) VH: EVQLVQSGAEVKKPGASVKVSCKASGYTFTKYWLGWVRQAPGQGLEWMGDIYPGYDYTHYNEKFKDRVTLTTDTSTSTAYMELRSLRSDDTAVYYCARSDGSSTYWGQGTLVTVSSASTKGPSVFPLAPEVQLVESGGGLVQPGGSLRLSCAASGFTFSNYGVTWVRQAPGKGLEWVSMIWADGSTHYASSVKGRFTISRDNSKNTLYLQMNSLRAEDTAVYYCAREWQHGPVAYWGQGTLVTVSS VL: DVLMTQTPLSLPVTPGEPASISCTSSQNIVHSNGNTYLEWYLQKPGQSPQLLIYKVSNRFSGVPDRFSGSGSGTDFTLKISRVEAEDVGVYYCFQVSHVPYTFGGGTKVEIKRTVAAPDIQMTQSPSSLSASVGDRVTITCRASQLVSSAVAWYQQKPGKAPKLLIYWASARHTGVPSRFSGSGSGTDFTLTISSLQPEDFATYYCQQHYKTPFTFGQGTKLEIKR |
| 0.036 |  | DVD2701 (bispecific antibody, IgG1) VH: EVQLVQSGAEVKKPGASVKVSCKASGYTFTKYWLGWVRQAPGQGLEWMGDIYPGYDYTHYNEKFKDRVTLTTDTSTSTAYMELRSLRSDDTAVYYCARSDGSSTYWGQGTLVTVSSASTKGPEVQLVESGGGLVQPGGSLRLSCAASGFTFSNYGVTWVRQAPGKGLEWVSMIWADGSTHYASSVKGRFTISRDNSKNTLYLQMNSLRAEDTAVYYCAREWQHGPVAYWGQGTLVTVSS VL: DVLMTQTPLSLPVTPGEPASISCTSSQNIVHSNGNTYLEWYLQKPGQSPQLLIYKVSNRFSGVPDRFSGSGSGTDFTLKISRVEAEDVGVYYCFQVSHVPYTFGGGTKVEIKRTVAAPSVFIFPPDIQMTQSPSSLSASVGDRVTITCRASQLVSSAVAWYQQKPGKAPKLLIYWASARHTGVPSRFSGSGSGTDFTLTISSLQPEDFATYYCQQHYKTPFTFGQGTKLEIKR |
|  | 0.001 | DVD2694 (bispecific antibody, IgG1) VH: EVQLVESGGGLVQPGGSLRLSCAASGFTFSNYGVTWVRQAPGKGLEWVSMIWADGSTHYASSVKGRFTISRDNSKNTLYLQMNSLRAEDTAVYYCAREWQHGPVAYWGQGTLVTVSSASTKGPEVQLVQSGAEVKKPGASVKVSCKASGYTFTKYWLGWVRQAPGQGLEWMGDIYPGYDYTHYNEKFKDRVTLTTDTSTSTAYMELRSLRSDDTAVYYCARSDGSSTYWGQGTLVTVSS VL: DIQMTQSPSSLSASVGDRVTITCRASQLVSSAVAWYQQKPGKAPKLLIYWASARHTGVPSRFSGSGSGTDFTLTISSLQPEDFATYYCQQHYKTPFTFGQGTKLEIKRTVAAPDVLMTQTPLSLPVTPGEPASISCTSSQNIVHSNGNTYLEWYLQKPGQSPQLLIYKVSNRFSGVPDRFSGSGSGTDFTLKISRVEAEDVGVYYCFQVSHVPYTFGGGTKVEIKR |
|  | 0.006 | DVD2746 (bispecific antibody, IgG1) VH: EVQLVESGGGLVQPGGSLRLSCAASGFTFSNYGVEWVRQAPGKGLEWVSGIWADGSTHYADTVKSRFTISRDNSKNTLYLQMNSLRAEDTAVYYCAREWQHGPVAYWGQGTLVTVSSASTKGPEVQLVQSGAEVKKPGASVKVSCKASGYTFTKYWLGWVRQAPGQGLEWMGDIYPGYDYTHYNEKFKDRVTLTTDTSTSTAYMELRSLRSDDTAVYYCARSDGSSTYWGQGTLVTVSS VL: DIQMTQSPSSLSASVGDRVTITCKASQLVSSAVAWYQQKPGKAPKLLIYWASTLHTGVPSRFSGSGSGTDFTLTISSLQPEDFATYYCQQHYRTPFTFGQGTKLEIKRTVAAPSVFIFPPDVLMTQTPLSLPVTPGEPASISCTSSQNIVHSNGNTYLEWYLQKPGQSPQLLIYKVSNRFSGVPDRFSGSGSGTDFTLKISRVEAEDVGVYYCFQVSHVPYTFGGGTKVEIKR |
|  | 0.003 | DVD2744 (bispecific antibody, IgG1) VH: EVQLVESGGGLVQPGGSLRLSCAASGFTFSNYGVEWVRQAPGKGLEWVSGIWADGSTHYADTVKSRFTISRDNSKNTLYLQMNSLRAEDTAVYYCAREWQHGPVAYWGQGTLVTVSSASTKGPEVQLVQSGAEVKKPGASVKVSCKASGYTFTKYWLGWVRQAPGQGLEWMGDIYPGYDYTHYNEKFKDRVTLTTDTSTSTAYMELRSLRSDDTAVYYCARSDGSSTYWGQGTLVTVSS VL: DIQMTQSPSSLSASVGDRVTITCKASQLVSSAVAWYQQKPGKAPKLLIYWASTLHTGVPSRFSGSGSGTDFTLTISSLQPEDFATYYCQQHYRTPFTFGQGTKLEIKRTVAAPDVLMTQTPLSLPVTPGEPASISCTSSQNIVHSNGNTYLEWYLQKPGQSPQLLIYKVSNRFSGVPDRFSGSGSGTDFTLKISRVEAEDVGVYYCFQVSHVPYTFGGGTKVEIKR |
|  | 0.018 | DVD3167 (bispecific antibody, IgG1) VH: EVQLVQSGAEVKKPGASVKVSCKASGYTFANYGIIWVRQAPGQGLEWMGWINTYTGKPTYAQKFQGRVTMTTDTSTSTAYMELSSLRSEDTAVYYCARKLFTTMDVTDNAMDYWGQGTTVTVSSASTKGPSVFPLAPEVQLVQSGAEVKKPGASVKVSCKASGYTFTSYWMHWVRQAPGQGLEWIGNINPKGGSNIYNEKFQGRVTMTRDTSISTAYMELSRLRSDDTAVYYCARLDYFGDSFDLWGQGTTVTVSS VL: DIQMTQSPSSLSASVGDRVTITCRASQDISQYLNWYQQKPGKAPKLLIYYTSRLQSGVPSRFSGSGSGTDFTLTISSLQPEDFATYFCQQGNTWPPTFGQGTKLEIKRTVAAPDIQMTQSPSSLSASVGDRVTITCRASQGIRNYLNWYQQKPGKAPKLLIYYASNLEVGVPSRFSGSGSGTDYTLTISSLQPEDFATYYCQQDNRFPYTFGGGTKVEIKR |
|  | 0.022 | DVD3177 (bispecific antibody, IgG1) VH: EVQLVQSGAEVKKPGASVKVSCKASGYTFNNYGIIWVRQAPGQGLEWMGWINTYTGKPTYAQKFQGRVTMTTDTSTSTAYMELSSLRSEDTAVYYCARKLFNTVAVTDNAMDYWGQGTTVTVSSASTKGPSVFPLAPEVQLVQSGAEVKKPGASVKVSCKASGYTFTSYWMHWVRQAPGQGLEWIGNINPKGGSNIYNEKFQGRVTMTRDTSISTAYMELSRLRSDDTAVYYCARLDYFGDSFDLWGQGTTVTVSS VL: DIQMTQSPSSLSASVGDRVTITCRASQDIENYLNWYQQKPGKAPKLLIYYTSRLQSGVPSRFSGSGSGTDFTLTISSLQPEDFATYFCQQGNTQPPTFGQGTKLEIKRTVAAPDIQMTQSPSSLSASVGDRVTITCRASQGIRNYLNWYQQKPGKAPKLLIYYASNLEVGVPSRFSGSGSGTDYTLTISSLQPEDFATYYCQQDNRFPYTFGGGTKVEIKR |
